A word on the Kd: it is a measure of binding affinity in units of concentration.

Read-outs that look alike come from different tables or passages of the source. Where no end group is shown, it is not given here. [ ]: non-standard residue; d: D form. pT = C[C@@H](OP(=O)(O)O)[C@H](N)C(=O)O; pS = N[C@@H](COP(=O)(O)O)C(=O)O; Flu = fluorescein

Assay [1] has as its target T1, Skp1-FBXW7 complex (human FBXW7 residues 263-707 with truncated Skp1) (UniProt P63208 1-163).
Assay [2] addresses T1, Skp1-FBXW7 complex (human FBXW7 …). The assay is described as follows: fluorescence polarisation.

In assay [1], Flu-VPP[pT]PPG[pS]H [Flu-VPPpTPPGpSH (doubly phosphorylated fluorescein-tagged DISC1 phosphodegron peptide)] yielded a Kd of 1200 nM.
In assay [1], Flu-VPP[pT]PPGSH [Flu-VPPpTPPGSH (singly phosphorylated fluorescein-tagged DISC1 phosphodegron peptide)] gave a Kd of 2300 nM.
In turn, AKKAMLSEQNRASPLPSGLLTPPQSGKKQSS (other) [Cyclin E (test agent of the FP assay)] yielded a Kd in assay [2] of 2000 nM.

For the origin of these results see US9981005 (dated 2018).
